Measured values taken from patent publication US20170355774A1 (Regeneron, published 2017).

T1: human GITR (amino acids M1-V241, NCBI Accession #NP_004186.1) expressed on cells (human, UniProt Q9Y5U5 26-241)
T1 sequence: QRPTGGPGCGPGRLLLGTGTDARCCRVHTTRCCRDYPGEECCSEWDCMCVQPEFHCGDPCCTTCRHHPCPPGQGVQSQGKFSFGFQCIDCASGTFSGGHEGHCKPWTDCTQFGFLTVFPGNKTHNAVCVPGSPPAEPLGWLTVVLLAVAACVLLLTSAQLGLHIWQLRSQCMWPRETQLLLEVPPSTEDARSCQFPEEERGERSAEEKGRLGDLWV

T2: hGITR.mmh (human)
T2 construct: soluble monomeric construct; also called human (h) GITR.mmh; monomeric human GITR
T2 chain: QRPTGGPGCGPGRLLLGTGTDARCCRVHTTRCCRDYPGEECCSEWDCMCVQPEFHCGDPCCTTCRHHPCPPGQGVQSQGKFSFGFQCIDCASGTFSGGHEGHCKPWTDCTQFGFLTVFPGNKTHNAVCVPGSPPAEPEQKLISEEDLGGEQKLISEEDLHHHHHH

T3: hGITR.mFc (human)
T3 construct: soluble dimeric construct with mouse Fc; also called dimeric human GITR
T3 chain: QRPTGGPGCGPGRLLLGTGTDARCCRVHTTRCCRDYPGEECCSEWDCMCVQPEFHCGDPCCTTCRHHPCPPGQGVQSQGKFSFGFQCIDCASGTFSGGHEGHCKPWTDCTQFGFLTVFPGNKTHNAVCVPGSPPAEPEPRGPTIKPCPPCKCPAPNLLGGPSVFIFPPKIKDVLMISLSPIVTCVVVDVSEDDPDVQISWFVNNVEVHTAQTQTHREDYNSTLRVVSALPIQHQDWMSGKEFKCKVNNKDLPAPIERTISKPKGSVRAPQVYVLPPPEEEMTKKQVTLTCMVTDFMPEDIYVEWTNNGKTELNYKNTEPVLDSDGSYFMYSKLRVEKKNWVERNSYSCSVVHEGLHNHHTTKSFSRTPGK

T4: mfGITR.mmh (Macaca fasicularis)
T4 construct: soluble monomeric construct; also called Macaca fasicularis (mf) GITR.mmh; cynomolgus GITR protein
T4 chain: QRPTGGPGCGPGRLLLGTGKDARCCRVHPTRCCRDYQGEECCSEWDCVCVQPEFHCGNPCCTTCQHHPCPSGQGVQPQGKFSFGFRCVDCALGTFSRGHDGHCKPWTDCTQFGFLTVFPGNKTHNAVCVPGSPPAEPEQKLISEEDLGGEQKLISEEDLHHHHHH

B1: H4H14525P (antibody, human IgG4, V domains shown)
VH: QVQLVESGGGVVQPGRSLRLSCAASGFTFSSYGMHWVRQAPGKGLEWVAVIWYVGSNKYYGESVKGRFTISRDNSKNTLYLQMNSLRDEDTAIYYCARGGQLGSFYYYGMDVWGQGTTVTVSS
VL: DIQMTQSPSSLSASVGDRVTITCRASQGIRNDLGWYQQKPGKAPKRLIYDVSSLQSGVPSRFSGSGSGTEFTLTISSLQPEDLATYYCLQHNSYPWTFGQGTKVEIK
notes: human IgG4 (H4H)
B2: H4H14508P (antibody, human IgG4, V domains shown)
VH: QVQLVESGGGVVQPGRSLRLSCAASGLTVSSYVMHWVRQAPGKGLEWVAIIWYDGSNKYYGDSVKGRFTISRDNSKKTLYLQMNSLRAEDTAVYYCARGRPLSSSSSDYYGLDVWGQGTTVTVSS
VL: AIQMTQSPSSLSASVGDRVTIICRASQGIRNDLGWYQQKPGKAPNLLIYAASSLQSGVPSRFSGSGSGTDFTLTISSLQPEDFATYYCLQDYNYPWTFGQGTKVEIK
notes: human IgG4 (H4H)
B3: H4H14469P (antibody, human IgG4, V domains shown)
VH: QVQLVESGGGVVQPGGSLRLSCAVSGFTFSDYGMHWVRQVPGAGLEWVAVIYYEGSNKYYADSVKGRFTISRDNSKNTLYLQMNSLRVEDTSMYFCARGPLLGGNFYSYLMDVWGQGTTVTVSS
VL: AIQMTQSPSSLSASVGDRVTITCRASQGIRNGLGWYQQKPGKAPKLLIYTASSLQSGVPSRFSGSGSGTDFTLTISSLQPEDFATYYCLQDYNYPFSFGPGTKVDIK
notes: human IgG4 (H4H)

How the values were obtained:
[1] = biological target: T1, human GITR (amino acids M1-V241, NCBI …); assay: cell-based or functional assay
[2] = biological target: T1, human GITR (amino acids M1-V241, NCBI …); assay: cell-based or functional assay; remark: listed apart in the source
[3] = biological target: T1, human GITR (amino acids M1-V241, NCBI …); assay: cell-based or functional assay; remark: listed apart in the source
hGITR.mmh = biological target: T2, hGITR.mmh; assay: SPR 37C, mAb capture
Description: (§1) (Table 3). […] GITR proteins were injected over the sensor surface at a flow rate of 30 μL/minute. All Biacore binding studies were performed in a buffer composed of 0.01M HEPES pH 7.4, 0.15M NaCl, 3 mM EDTA, 0.05% v/v Surfactant P20 (HBS-ET running buffer). Antibody-reagent association was monitored for 4 minutes while dissociation in HBS-ET running buffer (10 mM HEPES, 150 mM NaCl, 3 mM EDTA, 0.05% (v/v) Surfactant P20, pH 7.4) was monitored for 10 minutes. Kinetic association (kₐ) and dissociation (kd) rate constants were determined by fitting the real-time sensorgrams to a 1:1 binding model using Scrubber 2.0c curve fitting software. Binding dissociation equilibrium constants (KD) and dissociative half-lives (t ½) were calculated from the kinetic rate constants as: KD [M]=kd/kₐ; and t_{1/2}(min)=(ln 2/(60*kd). Results are summarized in Table 3.

hGITR.mFc = biological target: T3, hGITR.mFc; assay: SPR 37C, mAb capture
Description: as §1

mfGITR.mmh = biological target: T4, mfGITR.mmh; assay: SPR 37C, mAb capture
Description: as §1

[4] = biological target: T1, human GITR (amino acids M1-V241, NCBI …); assay: ECL cell binding, hGITR/HEK293-D9
Description: Nonspecific binding sites were blocked with 2% BSA (w/v)+PBS for 1 h at room temperature (RT). Next, serial dilutions of anti-GITR antibodies, ranging from 1.7 pM to 100 nM, were added to cells for 1 h at RT. Plates were then washed to remove unbound antibodies (AquaMax2000 plate washer, MSD Analytical Technologies) and plate-bound antibodies were detected with a SULFO-TAG™ conjugated anti-human kappa light chain IgG antibody (Jackson Immunoresearch) for 1 h at RT.
Following washes, luminescent signals were recorded with a SECTOR Imager 6000 (MSD) instrument. Direct binding signals (relative light units, RLU) were analyzed as a function of the antibody concentration and data were fitted with a sigmoidal (four-parameter logistic) dose-response model using GraphPad Prism™ software. […] The signal detected with 100 nM antibody binding to the hGITR expressing cells versus parental cells was recorded as an indication of intensity and specificity of GITR binding.

[5] = biological target: T1, human GITR (amino acids M1-V241, NCBI …); assay: cell-based or functional assay; remark: listed apart in the source

% Activation, NF-kB-Luc, non-anchored [1] [%]	% Blocking, NF-kB-Luc, non-anchored [1] [%]	EC50, hGITR activation, NF-kB-Luc, non-anchored [1] [nM]	IC50, blocking of hGITRL stimulation, NF-kB-Luc, non-anchored [1] [nM]	fold activation, T-cell proliferation, plate-bound Ab 10.6 nM, donor 1 [2] [fold]	fold activation, T-cell proliferation, plate-bound Ab 10.6 nM, donor 2 [2] [fold]	fold activation, T-cell proliferation, plate-bound Ab 10.6 nM, donor 3 [2] [fold]	fold activation, T-cell proliferation, plate-bound Ab 10.6 nM, donor 4 [2] [fold]	fold activation, T-cell proliferation, plate-bound Ab 10.6 nM, donor 5 [2] [fold]	fold activation, T-cell proliferation, plate-bound Ab 10.6 nM, donor 6 [2] [fold]	fold activation, T-cell proliferation, plate-bound Ab 10.6 nM, donor 7 [2] [fold]	fold activation, T-cell proliferation, plate-bound Ab 10.6 nM, donor 8 [2] [fold]	fold activation, T-cell proliferation, plate-bound Ab 10.6 nM, mean [2] [fold]	fold activation, T-cell proliferation, 22 nM, non-anchored, donor 1 [3] [fold]	fold activation, T-cell proliferation, 22 nM, non-anchored, donor 2 [3] [fold]	fold activation, T-cell proliferation, 22 nM, non-anchored, donor 3 [3] [fold]	fold activation, T-cell proliferation, 22 nM, non-anchored, donor 4 [3] [fold]	fold activation, T-cell proliferation, 22 nM, non-anchored, mean [3] [fold]	Kd (hGITR.mmh) [nM]	koff (hGITR.mmh) [s⁻¹]	other results	Binder
20	70	1.1	1.4	6	1	1	2	1	3	2	1	2	0.7	1	0.9	1	0.9	52.4	0.0166	kon (hGITR.mmh): 317000 M⁻¹ s⁻¹; t½ (hGITR.mmh): 0.7 min; Kd (hGITR.mFc): 0.427 nM; koff (hGITR.mFc): 0.000338 s⁻¹; kon (hGITR.mFc): 791000 M⁻¹ s⁻¹; t½ (hGITR.mFc): 34.2 min; Kd (mfGITR.mmh): 155 nM; koff (mfGITR.mmh): 0.0205 s⁻¹; kon (mfGITR.mmh): 133000 M⁻¹ s⁻¹; t½ (mfGITR.mmh): 0.6 min; Average Signal (RLU) at 100 nM [4]: 8840 RLU; EC50 [4]: 0.6 nM; fold activation, T-cell proliferation, 33 nM, FcgR anchored, donor 1 [5]: 1.2 fold; fold activation, T-cell proliferation, 33 nM, FcgR anchored, donor 2 [5]: 0.8 fold; fold activation, T-cell proliferation, 33 nM, FcgR anchored, donor 3 [5]: 1 fold; fold activation, T-cell proliferation, 33 nM, FcgR anchored, donor 4 [5]: 1.5 fold; fold activation, T-cell proliferation, 33 nM, FcgR anchored, donor 5 [5]: 1.5 fold; fold activation, T-cell proliferation, 33 nM, FcgR anchored, mean [5]: 1.2 fold	B1
30	40	1.2	0.9	10	4	4	7	4	11	3	2	5	0.7	0.9	0.9	1.4	1	36.6	0.00935	kon (hGITR.mmh): 255000 M⁻¹ s⁻¹; t½ (hGITR.mmh): 1.2 min; Kd (hGITR.mFc): 0.597 nM; koff (hGITR.mFc): 0.000719 s⁻¹; kon (hGITR.mFc): 1.21e+06 M⁻¹ s⁻¹; t½ (hGITR.mFc): 16.1 min; Kd (mfGITR.mmh): 39.3 nM; koff (mfGITR.mmh): 0.00507 s⁻¹; kon (mfGITR.mmh): 129000 M⁻¹ s⁻¹; t½ (mfGITR.mmh): 2.3 min; Average Signal (RLU) at 100 nM [4]: 6870 RLU; EC50 [4]: 0.45 nM; fold activation, T-cell proliferation, 33 nM, FcgR anchored, donor 1 [5]: 1 fold; fold activation, T-cell proliferation, 33 nM, FcgR anchored, donor 2 [5]: 0.7 fold; fold activation, T-cell proliferation, 33 nM, FcgR anchored, donor 3 [5]: 1.1 fold; fold activation, T-cell proliferation, 33 nM, FcgR anchored, donor 4 [5]: 1.8 fold; fold activation, T-cell proliferation, 33 nM, FcgR anchored, donor 5 [5]: 1.3 fold; fold activation, T-cell proliferation, 33 nM, FcgR anchored, mean [5]: 1.2 fold	B2
50	90	2.3	0.7	3	12	12	15	12	17	11	11	12	0.9	0.8	1	0.9	0.9	43	0.0122	kon (hGITR.mmh): 284000 M⁻¹ s⁻¹; t½ (hGITR.mmh): 0.9 min; Kd (hGITR.mFc): 0.335 nM; koff (hGITR.mFc): 0.000401 s⁻¹; kon (hGITR.mFc): 1.2e+06 M⁻¹ s⁻¹; t½ (hGITR.mFc): 28.8 min; Kd (mfGITR.mmh): 41.1 nM; koff (mfGITR.mmh): 0.00243 s⁻¹; kon (mfGITR.mmh): 59100 M⁻¹ s⁻¹; t½ (mfGITR.mmh): 4.7 min; Average Signal (RLU) at 100 nM [4]: 5230 RLU; EC50 [4]: 0.23 nM; fold activation, T-cell proliferation, 33 nM, FcgR anchored, donor 1 [5]: 0.7 fold; fold activation, T-cell proliferation, 33 nM, FcgR anchored, donor 2 [5]: 1 fold; fold activation, T-cell proliferation, 33 nM, FcgR anchored, donor 3 [5]: 0.9 fold; fold activation, T-cell proliferation, 33 nM, FcgR anchored, donor 4 [5]: 1.5 fold; fold activation, T-cell proliferation, 33 nM, FcgR anchored, donor 5 [5]: 1.5 fold; fold activation, T-cell proliferation, 33 nM, FcgR anchored, mean [5]: 1.1 fold	B3
